According to article PMC5100602, “RNA regulators responding to ribosomal protein S15 are frequent in sequence space”:
Substitutions are numbered along the chain they refer to.

Key:
[1] = target: T1, Gk-S15 (ribosomal protein S15) (Geobacillus kaustophilus, UniProt Q5L0I3 1-89); test: filter binding; Fmax 44%; poor 1:1 fit; SELEX Binding Buffer A: 50 mM Tris/acetate pH 7.5, 20 mM Mg-acetate, 270 mM KCl, 5 mM DTT, 0.02% BSA, 25 C, 30 min; filter binding (nitrocellulose/nylon) as previously described; conditions: protein: recombinant; tags: expressed from pET-HT; label: 5'-32P
[2] = target: T1, Gk-S15 (ribosomal protein S15); test: filter binding; Fmax 0.56; text says abolished; SELEX Binding Buffer A: 50 mM Tris/acetate pH 7.5, 20 mM Mg-acetate, 270 mM KCl, 5 mM DTT, 0.02% BSA, 25 C, 30 min; filter binding (nitrocellulose/nylon) as previously described; conditions: protein: recombinant; tags: expressed from pET-HT; label: 5'-32P; H1 disrupted
[3] = target: T1, Gk-S15 (ribosomal protein S15); test: filter binding; Fmax 0.71; SELEX Binding Buffer A: 50 mM Tris/acetate pH 7.5, 20 mM Mg-acetate, 270 mM KCl, 5 mM DTT, 0.02% BSA, 25 C, 30 min; filter binding (nitrocellulose/nylon) as previously described; conditions: protein: recombinant; tags: expressed from pET-HT; label: 5'-32P; H2 disrupted
[4] = target: T1, Gk-S15 (ribosomal protein S15); test: filter binding; Fmax 0.85; SELEX Binding Buffer A: 50 mM Tris/acetate pH 7.5, 20 mM Mg-acetate, 270 mM KCl, 5 mM DTT, 0.02% BSA, 25 C, 30 min; filter binding (nitrocellulose/nylon) as previously described; conditions: protein: recombinant; tags: expressed from pET-HT; label: 5'-32P; H1 restored
[5] = target: T1, Gk-S15 (ribosomal protein S15); test: filter binding; Fmax 70%; SELEX Binding Buffer A: 50 mM Tris/acetate pH 7.5, 20 mM Mg-acetate, 270 mM KCl, 5 mM DTT, 0.02% BSA, 25 C, 30 min; filter binding (nitrocellulose/nylon) as previously described; conditions: protein: recombinant; tags: expressed from pET-HT; label: 5'-32P; helices H1-H3
[6] = target: T2, Tt-S15 (ribosomal protein S15) (Thermus thermophilus, UniProt Q5SJ76 1-89); test: filter binding; Fmax 78%; SELEX Binding Buffer A: 50 mM Tris/acetate pH 7.5, 20 mM Mg-acetate, 270 mM KCl, 5 mM DTT, 0.02% BSA, 25 C, 30 min; filter binding (nitrocellulose/nylon) as previously described; conditions: protein: recombinant; tags: expressed from pET-HT; label: 5'-32P; helices H1-H3
[7] = target: T2, Tt-S15 (ribosomal protein S15); test: filter binding; Fmax 25%; SELEX Binding Buffer A: 50 mM Tris/acetate pH 7.5, 20 mM Mg-acetate, 270 mM KCl, 5 mM DTT, 0.02% BSA, 25 C, 30 min; filter binding (nitrocellulose/nylon) as previously described; conditions: protein: recombinant; tags: expressed from pET-HT; label: 5'-32P
[8] = target: T1, Gk-S15 (ribosomal protein S15); test: filter binding; Fmax 79%; SELEX Binding Buffer A: 50 mM Tris/acetate pH 7.5, 20 mM Mg-acetate, 270 mM KCl, 5 mM DTT, 0.02% BSA, 25 C, 30 min; filter binding (nitrocellulose/nylon) as previously described; conditions: protein: recombinant; tags: expressed from pET-HT; label: 5'-32P
[9] = target: T1, Gk-S15 (ribosomal protein S15); test: filter binding; Fmax 40%; SELEX Binding Buffer A: 50 mM Tris/acetate pH 7.5, 20 mM Mg-acetate, 270 mM KCl, 5 mM DTT, 0.02% BSA, 25 C, 30 min; filter binding (nitrocellulose/nylon) as previously described; conditions: protein: recombinant; tags: expressed from pET-HT; label: 5'-32P
[10] = target: T1, Gk-S15 (ribosomal protein S15); test: filter binding; Fmax 55%; SELEX Binding Buffer A: 50 mM Tris/acetate pH 7.5, 20 mM Mg-acetate, 270 mM KCl, 5 mM DTT, 0.02% BSA, 25 C, 30 min; filter binding (nitrocellulose/nylon) as previously described; conditions: protein: recombinant; tags: expressed from pET-HT; label: 5'-32P
[11] = target: T1, Gk-S15 (ribosomal protein S15); test: filter binding; Fmax 0.36; SELEX Binding Buffer A: 50 mM Tris/acetate pH 7.5, 20 mM Mg-acetate, 270 mM KCl, 5 mM DTT, 0.02% BSA, 25 C, 30 min; filter binding (nitrocellulose/nylon) as previously described; conditions: protein: recombinant; tags: expressed from pET-HT; label: 5'-32P
[12] = target: T1, Gk-S15 (ribosomal protein S15); test: filter binding; Fmax 21%; SELEX Binding Buffer A: 50 mM Tris/acetate pH 7.5, 20 mM Mg-acetate, 270 mM KCl, 5 mM DTT, 0.02% BSA, 25 C, 30 min; filter binding (nitrocellulose/nylon) as previously described; conditions: protein: recombinant; tags: expressed from pET-HT; label: 5'-32P

T2 sequence (Q5SJ76 whole entry): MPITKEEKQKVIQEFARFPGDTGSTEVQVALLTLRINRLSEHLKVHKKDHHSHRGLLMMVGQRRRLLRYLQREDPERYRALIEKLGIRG

B1: 11-5 (structured_RNA)
RNA: UGCGUAACGUACACUAAAGACGGAAGGCCAAAACCUAUGCUUACCCUUUACUUUGGAGUUUUAAAAUGUCUCUAAGUACUGAAGCAACAGCU
Q: B1 was tested. Which Kd [1] did it give?
A: 10 ± 1.4 nM

B2: 11-1-M2 (structured_RNA)
RNA: UUGGUAACGUACACUUCCUUCGCUUAUUCGGAGUAGAUCACGUGAUCAUUCUGUAUGCUUUGGAGUUUUAAAAUGUCUCUAAGUACUGAAGCAACAGCU
Q: Which Kd [2] does the source give for B2 here?
A: 56.5 ± 5.74 nM

B3: 11-1-M8 (structured_RNA)
RNA: B2 RNA with U2G, G3C, A64U, G65C
Q: With B3 as the binder, how does the Kd [3] read?
A: 84.5 ± 14.5 nM

B4: 11-1-M3 (structured_RNA)
RNA: B2 RNA with G9C, U10G
Q: For B4, which Kd [4] is on record?
A: 20.9 ± 6.3 nM

B5: 11-1 (structured_RNA)
RNA: B2 RNA with U2G, G3C
Q: What does the source list for B5?
A: Kd [5]: 0.9 ± 0.02 nM; Kd [6]: 94.9 ± 22.5 nM

B6: 11-2 (structured_RNA)
RNA: UGCGUAACGUACACUCCCUACUCGUGGAUUGGACUCUAUAAUAGAUCAUUCUAUAUACUGUGGAGCUUAAAAUGUCUCUAAGUACUGAAGCAACAGCU
Q: B6 was tested. Which Kd [7] did it give?
A: 39 ± 6.27 nM

Q: What about the Kd [8] of the same binder?
A: 9.7 ± 1.6 nM

B7: 11-3 (structured_RNA)
RNA: UGCGUAACGUACACUCCGAUGUUACCCGCGCGAGGUCAUUGGUACUCAAUCUAUAUACUUUGGAGUUUUAAAUGUCUCUAAGUACUGAAGCAACAGCU
Q: B7 was tested. Which Kd [9] did it give?
A: 20.7 ± 15.2 nM

B8: 11-6 (structured_RNA)
RNA: UGCGUAACGUACACUGAAGACCGCGAACUACAAACGUAACUCGGUUCAUUCUAUAUACUUUAGAGUUUUAAAAUGUCUCUAAGUACUGAAGCAACAGCU
Q: With B8 as the binder, how does the Kd [10] read?
A: 289 ± 121 nM

B9: 11-1-M4 (structured_RNA)
RNA: UGCGUAACGUACACUUCCUUCGCUUAUUCGGAGUAGAUCACGUGAUCAUUCUGUAUGCUUUGGAG
Q: With B9 as the binder, how does the Kd [11] read?
A: 7.7 ± 5.89 nM

B10: 11-4 (structured_RNA)
RNA: UGCGUAACGUACACUGAACAAUCCCAGCGCUCUAUGGAAUCUGCAUCAUCUAUUCUUUGGAGUUUAAAUGUCUCUAAGUACUGAAGCAACAGCU
Q: With B10 as the binder, how does the Kd [12] read?
A: 8.5 ± 2 nM
